The data set deals with MS2 coat protein. Nature of the data set: apparent KD of MS2 coat protein; designed switch direction (-1 OFF switch, 1 ON switch): -1; higher = weaker reporter binding. A digest of the protocol: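 Transcription of designed RNA switches on Illumina chips was done by stalled E. coli RNA polymerase. SNAP-549-labelled MS2 coat protein was then titrated in doubling steps from 0.7 or 1.5 nM to 3 µM, with steps of 0.8–1.5 h at the lowest and 10–20 min at the highest concentration. The per-design median over clusters of curve-fitted normalised fluorescence is reported as apparent KD.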

Setting [1] is: Eterna round: R95, input ligand: FMN 200 uM.
[2] abbreviates: Eterna round: R95, input ligand: microRNA oligo, concentration not stated.
Where [3] appears, read: Eterna round: R95, input ligand: none.
[4] abbreviates: input ligand: microRNA oligo, concentration not stated.

As to “UAGAAGUUCAACGAGUGAGACAUGAGGAUCACCCAUGUGGUGGUAGGGAACAAGCUUUUUGCACGUACUUAUGAGGA [JR_SV3TOV1_Sub005] (puzzle: Sensor v3, turn-off variant 1)”, the “apparent KD of MS2 coat protein” value is 368 nM under setting [1], 269 nM under setting [2] and 414 nM under setting [3].

Turning to “ACAUGAGGAUCACCCAUGUGACAAGAAUGGCUGAUACAGAGAUAGGAUAUAGGUGCAUAUCUAACCUAGAAGGGUCAUGACUGG [Deportation 75 - Jieux - Exclusion NG 3] (Eterna round: R96, puzzle: Exclusion NG 3)”, the “apparent KD of MS2 coat protein” value by setting is: (input ligand: FMN 200 uM) 53.4 nM; under setting [4], 34.3 nM; (input ligand: none) 37 nM.

On to “UCGGCGCGAGGAUAUACGUUUGCUUUUUUUUGUUUUUGUGUACAUGAGGAUCACCCAUGUAGAAGGCGCGCCGC [Apr-15 SS2-21] (puzzle: Exclusion 2)”, for which the “apparent KD of MS2 coat protein” value under setting [2] came to 22 nM.

As for “AUAGUGUGAGGAUAUCGGACCAGUCCAGUUAGGAGCAGGAUCGAGAAGGUACAUGAGGAUCACCCAUGUGACCA [Eternabot (L2) Solution 8] (Eterna round: R97, puzzle: Exclusion 4)”, the “apparent KD of MS2 coat protein” value was determined as 30.8 nM (input ligand: FMN 200 uM) and 16.8 nM (input ligand: none).

As for “GGUAUACAUGAGGAUCACCCAUGUCAGGAUAUGGCGGCGUCGGCGAAAGCGGAGGCGGCCAGAAGGGACGAUAG [AK-MS2ROC-r4-exclusion1-6.1] (Eterna round: R97, puzzle: Exclusion 1)”, the “apparent KD of MS2 coat protein” value runs as follows: (input ligand: FMN 200 uM) 70.7 nM; (input ligand: none) 124 nM.

Consider “UGUUGUUACGCAGGAUAUUGUCAACAGGCAAUAGGAUAUCCGAAAGGAGAAGGAUCGCCAACAGGCGAGAAGGGCGGGUUAACA [pwkr exNG2 2xF7 2xFMN.1] (Eterna round: R96, puzzle: Exclusion NG 2)”, for which the “apparent KD of MS2 coat protein” value runs as follows: (input ligand: FMN 200 uM) 133 nM; under setting [4], 1580 nM; (input ligand: none) 2630 nM.

Take “AAAUAAUAGAUAAAAUAAUACAUGAGGAUCACCCAUGUGGGAUGUUGAGGGUGAUACAGGCUUUUUGCUCGUCUUAU (puzzle: Sensor v3, turn-off variant 1)”: the “apparent KD of MS2 coat protein” value by setting is: under setting [1], 434 nM; under setting [2], 155 nM; under setting [3], 207 nM.

For “GAUCCACAUGAGGAUCACCCAUGUGAGGAUAUGAUACUAUGUACUUCGGUACAUAGUAUCAGAAGGCACAGGUC [Ex1-3: 56] (Eterna round: R96, puzzle: Exclusion 1)”, the “apparent KD of MS2 coat protein” value reads like this: (input ligand: FMN 200 uM) 333 nM; under setting [4], 50.7 nM; (input ligand: none) 52.9 nM.

Regarding “UCCAGCAUACGGAGAUCCAACAUGAGGAUCACCCAUGUCUGGAAAGCUUUUUGCUUGUCUUAUCCUCCUCUGUGUGC [Design #6] (Eterna round: R97, puzzle: Sensor, turn-off variant 1)”, the “apparent KD of MS2 coat protein” value (input ligand: FMN 200 uM) was determined as 22.5 nM and the “apparent KD of MS2 coat protein” value (input ligand: none) amounted to 22.9 nM.

Take “UACCAGGUUCAGGAUAUGCCCUCGAAGAGAGGCGCAGAAGGGAACACAUGAGGAUCACCCAUGUCAGCCGCUUC [Eternabot (Original) Solution 45] (Eterna round: R97, puzzle: Exclusion 6)”: the “apparent KD of MS2 coat protein” value turned out to be 26.6 nM (input ligand: FMN 200 uM) and 17.1 nM (input ligand: none).

Turning to “AGCUGUGGCCGAGGAUAUUACGAACCAUGGAAAACCAUGGAAACUCUACAUGAGGAUCACCCAUGUAAGAAGGCGGUCUCAGCA [Eli eng2 - 024] (Eterna round: R96, puzzle: Exclusion NG 2)”, the “apparent KD of MS2 coat protein” value (input ligand: FMN 200 uM) was 47.5 nM, the “apparent KD of MS2 coat protein” value under setting [4] is 11.7 nM and the “apparent KD of MS2 coat protein” value (input ligand: none) turned out to be 16.4 nM.

In the case of “UCACUACCGCAAGGAUAUGUUGUCUGACACGCUGCGUGACAUGAGGAUCACCCAUGUGCUAGUUCGCAGAAGGUGCGGAAUGUG [Eternabot solution 34] (Eterna round: R96, puzzle: Exclusion NG 2)”, the “apparent KD of MS2 coat protein” value (input ligand: FMN 200 uM) came to 63.2 nM, the “apparent KD of MS2 coat protein” value under setting [4] came to 9.98 nM and the “apparent KD of MS2 coat protein” value (input ligand: none) is 17.1 nM.

“GAUUAUGCGAGCUUUAGGGACAUGAGGAUCACCCAUGUUCGUCUUGUUGAUCUAGGUACGCUGACAUACCUAAAUCU [JMF 99] (puzzle: Sensor v3, turn-off variant 1)”: the “apparent KD of MS2 coat protein” value is, setting by setting: under setting [1], 19.6 nM; under setting [2], 25.6 nM; under setting [3], 19.7 nM.

On to “CCGUGGCAAGGAUAUACAUAGGAGAGGAAGGCAAGAGGAGGACAUGAGGAUCACCCAUGUAGAAGGUGCAGAUC [JR_Exclu2_Sub028] (puzzle: Exclusion 2)”, for which the “apparent KD of MS2 coat protein” value under setting [2] came out at 71.7 nM.

Take “AGGUCCUUCUGGAGACAUGAGGAUCACCCAUGUCGAGUCAGCGAGGAUAUCGGUUAAUAAUGUGACGAGAAGGCGCGGACCGAU [Ex NG3 #55] (Eterna round: R96, puzzle: Exclusion NG 3)”: the “apparent KD of MS2 coat protein” value reads like this: (input ligand: FMN 200 uM) 45.1 nM; under setting [4], 9.82 nM; (input ligand: none) 13 nM.

Take “AAUAAUGAGUAGGAUAUCACUAGCGAUAGCUAGUGAGAAGGACUCACAUGAGGAUCACCCAUGUGUUCCAAUAA [Mod3 Ex6/6-A4 by Brourd] (Eterna round: R97, puzzle: Exclusion 6)”: the “apparent KD of MS2 coat protein” value is, setting by setting: (input ligand: FMN 200 uM) 195 nM; (input ligand: none) 50.8 nM.

Consider “AGCGAGGUAGGAUAUACAUGAGGAUCACCCAUGUGCUUGCAUGGCGUGGAAUGUCGAGGUAGAAGGGCCAUGCC [EX3 #72] (Eterna round: R97, puzzle: Exclusion 3)”, for which the “apparent KD of MS2 coat protein” value runs as follows: (input ligand: FMN 200 uM) 33.2 nM; (input ligand: none) 27.2 nM.

Regarding “CACUAACAUGAGGAUCACCCAUGUUAGGAUAUGCAGUUCGGCCAACGGGCCCGAACAUGUAGAAGGAACAGGGU [Eternabot (L2) Solution 44] (Eterna round: R97, puzzle: Exclusion 1)”, the “apparent KD of MS2 coat protein” value runs as follows: (input ligand: FMN 200 uM) 81.3 nM; (input ligand: none) 25.8 nM.

Regarding “ACAUGAGGAUCACCCAUGUGAAAAGAAUGGCUGACACAGAGAUAGGAUAUAUGUGCAUAUCUAACAUAGAAGGGUCAUGACUGG [Deportation 79 - Jieux - Exclusion NG 3] (Eterna round: R96, puzzle: Exclusion NG 3)”, the “apparent KD of MS2 coat protein” value by setting is: (input ligand: FMN 200 uM) 28.6 nM; under setting [4], 21.6 nM; (input ligand: none) 33.1 nM.

For “GCGCAGUCAGGAUAUGCCGGAUAGGAUCACCCUGUCCAAAGGCAGAAGGGACAUGAGGAUCACCCAUGUGGCGC [e4e Mirror Pins] (puzzle: Exclusion 4)”, the “apparent KD of MS2 coat protein” value under setting [1] was 22.2 nM, the “apparent KD of MS2 coat protein” value under setting [2] turned out to be 17.7 nM and the “apparent KD of MS2 coat protein” value under setting [3] turned out to be 16.8 nM.

For the sequence “CCCAGUUACGGAGGAUAUUGUACAUGAGGAUCACCCAUGUAAUAAAUGAGGAUUUCGGGUGUCUACAAGAAGGCCGGGAUAGGC [Ostracism 18 - Jieux - Exclusion NG 2] (Eterna round: R96, puzzle: Exclusion NG 2)”, the “apparent KD of MS2 coat protein” value was 262 nM (input ligand: FMN 200 uM), 85.3 nM under setting [4] and 66 nM (input ligand: none).

As for “AAAAUAAUAAGUUUACGAACAUUUAGAAAAAGGGAUCCAACAUGAGGAUCACCCAUGUAUUAUCAGCAUAAACCCUA [JR_Sensorv2_tov2_Sub1270] (Eterna round: R96, puzzle: Sensor v2, turn-off variant 2)”, the “apparent KD of MS2 coat protein” value was determined as 341 nM (input ligand: FMN 200 uM), 270 nM under setting [4] and 360 nM (input ligand: none).

For “UAGUGAGCGUGAGGAAUAUACAUGAGGAUCACCCAUGUUUGCUAAUAUAUUGCUCGUCUUAUAACAACAAUUAACUG [Mod-hoo-honey#abc] (Eterna round: R97, puzzle: Sensor, turn-off variant 1)”, the “apparent KD of MS2 coat protein” value reads like this: (input ligand: FMN 200 uM) 27.5 nM; (input ligand: none) 20.9 nM.

On to “GGAUCGAAAGUGAGGAUAUACCACUGGAUACAGUGGUAGAAGGCACAUGAGGAUCACCCAUGUCCUUACGAUCC [Fiskers BMX 4 - 48] (puzzle: Brourd's mod of Exclusion 4)”, for which, under setting [2], the “apparent KD of MS2 coat protein” value turned out to be 20.5 nM.

On to “ACGCGUGGCUAGGAUAUCGAGGAAUCUAGCCAGCGAGAAGGAGCCACAUGAGGAUCACCCAUGUGGUGAUCCUC [jl-ex6-4.65 ViennaUCT mod] (Eterna round: R97, puzzle: Exclusion 6)”, for which the “apparent KD of MS2 coat protein” value (input ligand: FMN 200 uM) was found to be 6.76 nM and the “apparent KD of MS2 coat protein” value (input ligand: none) came to 3.8 nM.

As for “AGCCAAGCAGGAUAUGCCCGGAAUAACAUGAGGAUCACCCAUGUGACCGAUUGAUGUUCUGCAGAAGGGCUUGGAA [Erxesoan mod] (Eterna round: R97, puzzle: Exclusion 5)”, the “apparent KD of MS2 coat protein” value by setting is: (input ligand: FMN 200 uM) 214 nM; (input ligand: none) 28.8 nM.

“GGUGCGUAUGUGAGGAUAUGCUGGUCCUUGGAUCGGCAGAAGGCACAUGAGGAUCACCCAUGUGGUGUCGUACA [salish99_Bmod_ex4_087] (puzzle: Brourd's mod of Exclusion 4)”: under setting [2], the “apparent KD of MS2 coat protein” value was 232 nM.

In the case of “GGCCCGCGCGUGAGGAUAUGCUGAUACUAGGAUUAGCAGAAGGCACAUGAGGAUCACCCAUGUCCAACUUGUCU [LRO-BmodExc4-11- Bluer = mod of Colors by Tatyana Zabanova] (Eterna round: R97, puzzle: Brourd's mod of Exclusion 4)”, the “apparent KD of MS2 coat protein” value (input ligand: FMN 200 uM) stood at 34.4 nM and the “apparent KD of MS2 coat protein” value (input ligand: none) was 24.5 nM.

In the case of “GAGUUAGCGUGAGGAAUAUACAUGAGGAUCACCCAUGUUAGCUAAUAUAUUGCUCGUCUUAUAACAACAAUUAACUC [Alarm 10 - Jieux - Sensor, turn-off variant 1] (Eterna round: R97, puzzle: Sensor, turn-off variant 1)”, the “apparent KD of MS2 coat protein” value is 14.6 nM (input ligand: FMN 200 uM) and 13.2 nM (input ligand: none).

For the sequence “GUAGAGUAAGGAUAUAGAGAAUAGGAUAGAAUGGUUAGAAUCUAGAAGGUACAUGAGGAUCACCCAUGUAAUGU [Excluse me!!!! 7 - Jieux - Exclusion 4] (puzzle: Exclusion 4)”, the “apparent KD of MS2 coat protein” value under setting [2] is 18.7 nM.

Values taken from the supplement of paper PMC9170038.
